In this assay the target is HIS-CbuHMGA (Catalpa bungei). In words: BLI; Octet QK (Forte-Bio); GST-CbuSPL9 at 2381, 1191, 595.3, 297.6 and 148.8 nM on HIS-CbuHMGA; which protein was immobilised, buffer and temperature not told.

Here are results for one substance from article PMC7060540.

Broadly, the Kd is the equilibrium constant for the complex coming apart. GST-CbuSPL9 (natural protein) came in with a Kd of 311 nM.
